From PMC4507774, “Arabidopsis seed-specific vacuolar aquaporins are involved in maintaining seed longevity under the control of ABSCISIC ACID INSENSITIVE 3”

T1: ABI3-B3 (partial ABI3, B3 domain) (UniProt Q01593 559-720)
T1 sequence: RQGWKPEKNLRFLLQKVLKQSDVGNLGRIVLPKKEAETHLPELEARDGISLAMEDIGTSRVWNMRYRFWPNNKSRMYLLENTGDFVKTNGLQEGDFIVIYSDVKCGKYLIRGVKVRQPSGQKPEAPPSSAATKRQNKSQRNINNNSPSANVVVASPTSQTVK


Tests used:
[1] = molecular target: T1, ABI3-B3 (partial ABI3, B3 domain); assay: EMSA; EMSA: 1x LightShift binding buffer, 2.5% glycerol, 50 ng/ul poly(dI-dC), 50 mM KCl, 0.5 mM EDTA, 20 C, 30 min; pH not stated; conditions: protein: recombinant; tags: His (pET28a, Ni-NTA); label: biotin; blunt
[2] = molecular target: T1, ABI3-B3 (partial ABI3, B3 domain); assay: competition; 40- or 200-fold unlabelled competitor vs 31RY2-bio; EMSA: 1x LightShift binding buffer, 2.5% glycerol, 50 ng/ul poly(dI-dC), 50 mM KCl, 0.5 mM EDTA, 20 C, 30 min; pH not stated; conditions: protein: recombinant; tags: His (pET28a, Ni-NTA); blunt
[3] = molecular target: T1, ABI3-B3 (partial ABI3, B3 domain); assay: competition; 40- or 200-fold unlabelled competitor vs 32RY-bio; EMSA: 1x LightShift binding buffer, 2.5% glycerol, 50 ng/ul poly(dI-dC), 50 mM KCl, 0.5 mM EDTA, 20 C, 30 min; pH not stated; conditions: protein: recombinant; tags: His (pET28a, Ni-NTA); blunt

Row | Binder | binding result [1] | binding result [2] | binding result [3]
1 | 31RY2-bio (TIP3;1 promoter RY2) (dsDNA) DNA 1: ATCTACTTGGCACACATGCATGCTTAGTCAACACA DNA 2: TGTGTTGACTAAGCATGCATGTGTGCCAAGTAGAT | binds | – | –
2 | 31RY2-cold (dsDNA) DNA 1: ATCTACTTGGCACACATGCATGCTTAGTCAACACA DNA 2: TGTGTTGACTAAGCATGCATGTGTGCCAAGTAGAT | – | binds | –
3 | 32RY-bio (TIP3;2 promoter RY) (dsDNA) DNA 1: CTTGATCCACTTGGCACACATGCATAGATATATAGTCACAGC DNA 2: GCTGTGACTATATATCTATGCATGTGTGCCAAGTGGATCAAG | binds | – | –
4 | 32RY-cold (dsDNA) DNA 1: CTTGATCCACTTGGCACACATGCATAGATATATAGTCACAGC DNA 2: GCTGTGACTATATATCTATGCATGTGTGCCAAGTGGATCAAG | – | – | binds
5 | 31RY2-mu (dsDNA) DNA 1: ATCTACTTGGCACAGCGCTAGCCTTAGTCAACACA DNA 2: TGTGTTGACTAAGGCTAGCGCTGTGCCAAGTAGAT | – | no binding | –
6 | 32RY-mu (dsDNA) DNA 1: CTTGATCCACTTGGCACAGCGTACTAGATATATAGTCACAGC DNA 2: GCTGTGACTATATATCTAGTACGCTGTGCCAAGTGGATCAAG | – | – | no binding
